Laboratory results: paper PMC3764422, “A model of yeast glycolysis based on a consistent kinetic characterisation of all its enzymes” (Febs Letters, 2013)

Target: T1, phosphofructokinase beta subunit Pfk2p (S. cerevisiae, UniProt P16862 1-959)
T1 sequence (looked up): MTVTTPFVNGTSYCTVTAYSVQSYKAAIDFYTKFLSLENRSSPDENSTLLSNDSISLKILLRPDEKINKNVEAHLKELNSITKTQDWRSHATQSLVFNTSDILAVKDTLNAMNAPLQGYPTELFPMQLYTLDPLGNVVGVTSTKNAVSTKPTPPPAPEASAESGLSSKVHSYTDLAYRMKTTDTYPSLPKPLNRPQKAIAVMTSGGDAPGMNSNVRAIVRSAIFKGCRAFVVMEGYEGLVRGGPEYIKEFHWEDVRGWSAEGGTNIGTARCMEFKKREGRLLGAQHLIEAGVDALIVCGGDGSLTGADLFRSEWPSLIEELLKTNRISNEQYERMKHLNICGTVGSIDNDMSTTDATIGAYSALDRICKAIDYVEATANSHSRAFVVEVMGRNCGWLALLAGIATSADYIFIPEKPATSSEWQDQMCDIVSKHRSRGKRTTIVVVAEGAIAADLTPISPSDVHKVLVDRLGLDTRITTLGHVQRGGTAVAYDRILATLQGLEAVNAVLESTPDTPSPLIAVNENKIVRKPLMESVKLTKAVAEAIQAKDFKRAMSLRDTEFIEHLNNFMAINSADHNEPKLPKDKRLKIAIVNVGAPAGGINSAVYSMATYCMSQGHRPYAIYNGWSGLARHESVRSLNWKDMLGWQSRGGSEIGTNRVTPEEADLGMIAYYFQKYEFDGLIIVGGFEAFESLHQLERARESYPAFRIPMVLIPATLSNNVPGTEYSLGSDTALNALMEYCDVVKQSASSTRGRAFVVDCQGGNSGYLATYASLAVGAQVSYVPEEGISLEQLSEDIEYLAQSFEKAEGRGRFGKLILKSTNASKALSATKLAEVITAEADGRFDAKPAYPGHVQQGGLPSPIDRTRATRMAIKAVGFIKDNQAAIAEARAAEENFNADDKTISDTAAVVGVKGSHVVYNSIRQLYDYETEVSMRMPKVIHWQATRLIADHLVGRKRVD
Test: cell-based or functional assay

B1: phosphofructokinase alpha subunit Pfk1p (enzyme, S. cerevisiae, UniProt P16861 1-987, looked up)
chain: MQSQDSCYGVAFRSIITNDEALFKKTIHFYHTLGFATVKDFNKFKHGENSLLSSGTSQDSLREVWLESFKLSEVDASGFRIPQQEATNKAQSQGALLKIRLVMSAPIDETFDTNETATITYFSTDLNKIVEKFPKQAEKLSDTLVFLKDPMGNNITFSGLANATDSAPTSKDAFLEATSEDEIISRASSDASDLLRQTLGSSQKKKKIAVMTSGGDSPGMNAAVRAVVRTGIHFGCDVFAVYEGYEGLLRGGKYLKKMAWEDVRGWLSEGGTLIGTARSMEFRKREGRRQAAGNLISQGIDALVVCGGDGSLTGADLFRHEWPSLVDELVAEGRFTKEEVAPYKNLSIVGLVGSIDNDMSGTDSTIGAYSALERICEMVDYIDATAKSHSRAFVVEVMGRHCGWLALMAGIATGADYIFIPERAVPHGKWQDELKEVCQRHRSKGRRNNTIIVAEGALDDQLNPVTANDVKDALIELGLDTKVTILGHVQRGGTAVAHDRWLATLQGVDAVKAVLEFTPETPSPLIGILENKIIRMPLVESVKLTKSVATAIENKDFDKAISLRDTEFIELYENFLSTTVKDDGSELLPVSDRLNIGIVHVGAPSAALNAATRAATLYCLSHGHKPYAIMNGFSGLIQTGEVKELSWIDVENWHNLGGSEIGTNRSVASEDLGTIAYYFQKNKLDGLIILGGFEGFRSLKQLRDGRTQHPIFNIPMCLIPATVSNNVPGTEYSLGVDTCLNALVNYTDDIKQSASATRRRVFVCEVQGGHSGYIASFTGLITGAVSVYTPEKKIDLASIREDITLLKENFRHDKGENRNGKLLVRNEQASSVYSTQLLADIISEASKGKFGVRTAIPGHVQQGGVPSSKDRVTASRFAVKCIKFIEQWNKKNEASPNTDAKVLRFKFDTHGEKVPTVEHEDDSAAVICVNGSHVSFKPIANLWENETNVELRKGFEVHWAEYNKIGDILSGRLKLRAEVAALAAENK
With B1 the “kcat of phosphofructokinase, Pfk1p:Pfk2p co-expressed and co-purified (spectrophotometric coupled assay, 30 °C)” value was 210 s⁻¹.
